Experimental data published in patent publication US20260072027A1, “Peptides And Method” (Queen Mary University of London, priority 2022, published 2026).
Where no end group is shown, it is not given here.

Experiments:
[1] = target: Serum IgG autoantibodies of subjects with type 1 diabetes (human); experiment: competitive ELISA, T1D serum pre-incubated with peptide, plate coated with oxidised insulin (Example 3)
[2] = target: Serum IgG autoantibodies of subjects with type 1 diabetes (human); experiment: competitive ELISA, T1D serum pre-incubated with peptide, plate coated with oxidised insulin (FIG. 2B)

B1: oxPTM-INSP-6, peptide 6 oxidised in house (oxidant not specified at the place) (peptide)
peptide: ERGFFYTPKT
modifications: not fully specified (N-terminus); also: oxidised in house (CuCl2, H2O2, NaOCl), modified residues not defined
[1]
  % reduction of serum binding to oxidised whole insulin: 35 to 70%
[2]
  % reduction of serum binding to oxidised whole insulin: 35 to 75%
